The target in experiment [1] is 1059-SOSIP (soluble SOSIP Env trimer of the transmitted/founder HIV-1 strain 1059) (HIV-1 (strain 1059, transmitted/founder)). In words: cryo-EM structure; unliganded SOSIP trimers purified by GNL/SEC; 2.16 mg/mL 1059-SOSIP, 3.64 mg/mL BG505-SOSIP; 0.085 mM DDM before vitrification; refined with C1 symmetry.
In experiment [2] the target is BG505-SOSIP (soluble SOSIP Env trimer of HIV-1 strain BG505) (HIV-1 (strain BG505)) (UniProt Q2N0S6). The experiment is described as above.

For two substances, stoichiometry N results are on record in article PMC11347675.

In general, stoichiometry N refers to a count of units in the complex or per binding partner.

As for “1059-SOSIP (soluble SOSIP Env trimer of the transmitted/founder HIV-1 strain 1059) (complex)”, the stoichiometry N in experiment [1] came to 3. Substance “BG505-SOSIP (soluble SOSIP Env trimer of HIV-1 strain BG505) (from UniProt Q2N0S6 1-860; Q2N0S6 1-860) (complex)” gave a stoichiometry N in experiment [2] of 3.
